Experimental data published in US20230374088A1 (GENERAL HOSPITAL, published 2023).
One block for each binder: values may come before it.

B1: Gli2-ZF (418-604aa; zinc finger domain of Gli2) (other, human, UniProt P10070 418-604, looked up)
chain: KEDLDRDDCKQEAEVVIYETNCHWEDCTKEYDTQEQLVHHINNEHIHGEKKEFVCRWQACTREQKPFKAQYMLVVHMRRHTGEKPHKCTFEGCSKAYSRLENLKTHLRSHTGEKPYVCEHEGCNKAFSNASDRAKHQNRTHSNEKPYICKIPGCTKRYTDPSSLRKHVKTVHGPDAHVTKKQRNDVH
notes: Expressed with an HRV-cleavable N-terminal 6xHis tag, cleaved 'if needed'; also called Gli-ZF
B2: GST-Kif7-CC (460-600aa) (other)
chain: PDSGIESASVEDQAAQGAGGRKEDEGAQQLLTLQNQVARLEEENRDFLAALEDAMEQYKLQSDRLREQQEEMVELRLRLELVRPGWGGPRLLNGLPPGSFVPRPHTAPLGGAHAHVLGMVPPACLPGDEVGSEQRGEQVTN
notes: held on the BLI sensor through the GST tag; also called Kif7 coiled-coil domain; coiled-coil dimerization domain fragment of Kif7; not shown: N-terminal GST tag (HRV protease cleavable, modified pGEX vector)

Assays:
Kif7-DM-GFP (1-543aa) [1] = target: T1, Kif7-DM-GFP (1-543aa) (human, UniProt Q2M1P5 1-543); assay: cell-based or functional assay
T1 sequence: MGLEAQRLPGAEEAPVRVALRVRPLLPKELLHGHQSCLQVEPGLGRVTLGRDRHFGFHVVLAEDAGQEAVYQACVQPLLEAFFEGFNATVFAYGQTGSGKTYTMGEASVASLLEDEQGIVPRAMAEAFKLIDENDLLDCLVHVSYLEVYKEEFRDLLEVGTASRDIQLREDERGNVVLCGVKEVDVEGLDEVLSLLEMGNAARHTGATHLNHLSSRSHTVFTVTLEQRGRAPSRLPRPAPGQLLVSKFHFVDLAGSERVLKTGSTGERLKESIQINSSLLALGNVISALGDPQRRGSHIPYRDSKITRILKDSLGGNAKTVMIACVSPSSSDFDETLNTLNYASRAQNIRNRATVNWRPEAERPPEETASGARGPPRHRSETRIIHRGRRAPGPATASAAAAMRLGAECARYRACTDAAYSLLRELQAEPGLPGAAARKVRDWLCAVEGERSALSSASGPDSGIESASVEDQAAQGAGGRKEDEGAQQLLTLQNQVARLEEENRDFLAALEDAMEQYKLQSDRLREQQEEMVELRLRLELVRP

Kif7-DM-GFP (1-543aa) [2] = target: T1, Kif7-DM-GFP (1-543aa); assay: BLI; HIS-tagged, GFP-tagged kinesin on anti-penta-HIS sensor, Gli2-ZF as analyte, Hill fit
Protocol: (§1) Data represent mean and standard deviation from three independent repeats. The plots of binding response versus Gli2-ZF concentration were fit to a Hill equation to determine equilibrium dissociation constants (Kd).
(§2) BLI experiments were performed in an Octet Red 96 instrument (ForteBio). To quantify Kif7-Gli2 binding, Experiments were performed in an assay buffer containing 40 mM TRIS pH7.3, 40 mM KCl, 40 μM ATP 1 mM MgCl₂, 0.12% tween and 0.5 mM TCEP. In the simplest assay, dimeric GST-Kif7-CC at a concentration of 120 nM is immobilized on an anti-GST biosensor chip. Unbound Kif7 is washed away with buffer, and the chips are then dipped into buffer with a range of Gli2-ZF concentrations from 0-1 μM to allow for association of the two proteins. After 300 seconds, they are then moved back into a well with just buffer to allow dissociation for 400 seconds. The equilibrium response of each sensor from three independent repeats at each Gli2 concentration were normalized and plotted against Gli2 concentration and fitted with a Hill function to obtain a Kₜ. […] The assays were also performed with HIS-tagged Kif7-DM and the Kif7-Kif27 chimeric proteins, requiring the use of an anti-penta-HIS biosensor chip, and referencing sensors to account for non-specific binding of Gli2 to the HIS sensor. A flipped assay, using HIS-tagged Gli2 on the sensor and a range of Kif7 concentrations in buffer, was also conducted.

Kif7M-Kif27CC chimera = target: T2, Kif7M-Kif27CC chimera (human, UniProt Q86VH2 475-570); assay: as above
T2 construct: range 475-570; not shown: HIS tag (used for BLI); GFP tag
T2 sequence: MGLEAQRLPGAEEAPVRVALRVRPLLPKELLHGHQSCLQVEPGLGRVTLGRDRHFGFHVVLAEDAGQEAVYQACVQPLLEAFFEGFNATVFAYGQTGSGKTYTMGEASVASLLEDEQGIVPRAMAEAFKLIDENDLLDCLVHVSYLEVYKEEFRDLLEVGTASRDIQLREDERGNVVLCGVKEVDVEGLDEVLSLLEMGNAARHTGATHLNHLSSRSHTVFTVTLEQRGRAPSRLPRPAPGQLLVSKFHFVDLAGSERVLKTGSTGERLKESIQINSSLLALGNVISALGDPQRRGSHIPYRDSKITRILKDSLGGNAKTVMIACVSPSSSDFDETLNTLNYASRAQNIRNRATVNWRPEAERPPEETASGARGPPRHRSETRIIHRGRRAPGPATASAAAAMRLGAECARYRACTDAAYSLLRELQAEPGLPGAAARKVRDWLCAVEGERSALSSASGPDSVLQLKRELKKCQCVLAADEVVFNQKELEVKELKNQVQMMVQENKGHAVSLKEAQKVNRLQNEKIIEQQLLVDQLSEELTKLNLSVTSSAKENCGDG
Protocol: as §1, §2

Kif27M-Kif7CC chimera = target: T3, Kif27M-Kif7CC chimera (human, UniProt Q86VH2 1-475); assay: as above
T3 construct: range 1-475; not shown: HIS tag (used for BLI); GFP tag
T3 sequence: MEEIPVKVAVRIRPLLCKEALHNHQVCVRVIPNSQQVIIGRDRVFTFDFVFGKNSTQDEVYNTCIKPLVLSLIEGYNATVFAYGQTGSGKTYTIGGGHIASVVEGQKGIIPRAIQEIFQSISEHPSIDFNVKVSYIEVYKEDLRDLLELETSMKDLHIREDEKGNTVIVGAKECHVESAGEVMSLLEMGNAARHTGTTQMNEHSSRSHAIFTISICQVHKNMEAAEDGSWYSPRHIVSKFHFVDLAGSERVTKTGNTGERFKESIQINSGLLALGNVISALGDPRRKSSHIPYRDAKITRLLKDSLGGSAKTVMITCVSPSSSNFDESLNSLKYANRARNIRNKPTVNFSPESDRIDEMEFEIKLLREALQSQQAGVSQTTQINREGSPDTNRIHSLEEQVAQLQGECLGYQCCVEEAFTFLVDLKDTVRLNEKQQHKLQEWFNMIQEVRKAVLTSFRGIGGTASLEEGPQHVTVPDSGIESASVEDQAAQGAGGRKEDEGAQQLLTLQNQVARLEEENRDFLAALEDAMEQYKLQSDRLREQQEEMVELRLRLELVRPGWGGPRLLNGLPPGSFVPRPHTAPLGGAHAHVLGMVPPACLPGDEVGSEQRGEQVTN
Protocol: as §1, §2

GST-Kif7-CC (460-600aa) [3] = target: B2; assay: BLI, GST-Kif7-CC on the sensor, Gli2-ZF titrated in the presence of 125 nM Gli2 target dsDNA (competitor); not an affinity of the free pair [panel A]
Protocol: as §2

Gli2-ZF-1-4 [4] = target: T4, Gli2-ZF-1-4 (human, UniProt P10070 418-562, limits assumed); assay: BLI with Gli2-ZF truncation, Hill fit
T4 construct: domain: zinc-fingers 1-4
Description: as §1
(§3) Third, we performed a series of site-directed mutagenesis experiments to further confirm the structural model and map the residues of Gli2-ZF and Kif7-CC required for complex formation. We created five Gli2-ZF truncations containing different groups of zinc-fingers (FIG. 3C; FIGS. 10A & 10B). […] This is similar to the Gli-DNA interaction where ZF2 and ZF3 are critical for making contacts with the phosphate backbone of DNA (Pavletich and Pabo, Science, 261, 1701-1707, 1993).
(§4) BLI experiments were performed in an Octet Red 96 instrument (ForteBio). To quantify Kif7-Gli2 binding, Experiments were performed in an assay buffer containing 40 mM TRIS pH7.3, 40 mM KCl, 40 μM ATP 1 mM MgCl₂, 0.12% tween and 0.5 mM TCEP. In the simplest assay, dimeric GST-Kif7-CC at a concentration of 120 nM is immobilized on an anti-GST biosensor chip. Unbound Kif7 is washed away with buffer, and the chips are then dipped into buffer with a range of Gli2-ZF concentrations from 0-1 μM to allow for association of the two proteins. After 300 seconds, they are then moved back into a well with just buffer to allow dissociation for 400 seconds. […]

[5] = target: B1; assay: BLI; GST-Kif7-CC on anti-GST sensor, Gli2-ZF as analyte, Hill fit of equilibrium response
Description: Data represent mean and standard deviation from three independent repeats. The plots of binding response versus Gli2-ZF concentration were fit to a Hill equation to determine equilibrium dissociation constants (Kd). […] See also FIGS. 8A & 8B.
Single molecule fluorescence intensity and photobleaching analysis of the GFP-tagged proteins indicate that the GST-Kif7-CC is an obligate dimer and Gli2-ZF is a monomer (FIGS. 8C & 8D). […] We also verified that Kif7-CC-GFP and Gli2-ZF-GFP bind with similar affinity as the untagged proteins (FIG. 8E). Due to higher stability and yield of the Kif7-CC compared to the Kif7-SCC protein, we used the Kif7-CC for further biochemical analysis.
BLI experiments were performed in an Octet Red 96 instrument (ForteBio). To quantify Kif7-Gli2 binding, Experiments were performed in an assay buffer containing 40 mM TRIS pH7.3, 40 mM KCl, 40 μM ATP 1 mM MgCl₂, 0.12% tween and 0.5 mM TCEP. In the simplest assay, dimeric GST-Kif7-CC at a concentration of 120 nM is immobilized on an anti-GST biosensor chip. Unbound Kif7 is washed away with buffer, and the chips are then dipped into buffer with a range of Gli2-ZF concentrations from 0-1 μM to allow for association of the two proteins. After 300 seconds, they are then moved back into a well with just buffer to allow dissociation for 400 seconds.

Gli2-ZF-1-4 [6] = target: T4, Gli2-ZF-1-4; assay: BLI with Gli2-ZF truncation, Hill fit (legend of FIG. 10C); legend of FIG. 10C; Hill fit, three repeats
Protocol: as §1
as §2, with “A flipped assay, using HIS-tagged Gli2 on the sensor and a range of Kif7 concentrations in buffer, was also conducted.” left out

[7] = target: B1; assay: BLI, Hill fit
Protocol: as §1, with “(Kd). […] GFP-tagged versions of proteins show a consistent increase in Kd that is within error range.” for “(Kd).”
as §2, with “A flipped assay, using HIS-tagged Gli2 on the sensor and a range of Kif7 concentrations in buffer, was also conducted.” left out

Gli2-ZF-GFP = target: T5, Gli2-ZF-GFP (human, UniProt P10070 418-604); assay: BLI, Hill fit
T5 construct: HRV-cleavable N-terminal 6xHis tag in the vector; not shown: C-terminal GFP tag
T5 sequence (looked up): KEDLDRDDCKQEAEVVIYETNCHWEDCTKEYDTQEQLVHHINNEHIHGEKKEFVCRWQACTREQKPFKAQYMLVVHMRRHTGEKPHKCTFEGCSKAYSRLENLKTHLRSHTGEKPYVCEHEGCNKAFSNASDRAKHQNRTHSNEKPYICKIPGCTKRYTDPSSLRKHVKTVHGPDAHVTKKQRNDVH
Protocol: as §1, with “(Kd). […] GFP-tagged versions of proteins show a consistent increase in Kd that is within error range.” for “(Kd).”
as §2, with “A flipped assay, using HIS-tagged Gli2 on the sensor and a range of Kif7 concentrations in buffer, was also conducted.” left out

GST-Kif7-CC (460-600aa) [8] = target: B2; assay: BLI with Gli2-ZF truncation, Hill fit
Description: as §1, §3, §4

Binder: B1
Kif7 fluorescence intensity on microtubules (TIRF) (Kif7-DM-GFP (1-543aa) [1]): > 5 fold | Kd (Kif7-DM-GFP (1-543aa) [2]): 217 nM | Kd (Kif7M-Kif27CC chimera): 397 nM | Kd (Kif27M-Kif7CC chimera): 213 nM | EC50 (read off the curve) (GST-Kif7-CC (460-600aa) [3]): ~200 nM

Binder: B2
Kd (Gli2-ZF-1-4 [4]): 101 nM | Kd [5]: 48 nM | Kd (Gli2-ZF-1-4 [6]): 103 nM

Kd [7]: 65 nM | Kd (Gli2-ZF-GFP): 57 nM
B3: GST-Kif7-CC-GFP (other)
chain: PDSGIESASVEDQAAQGAGGRKEDEGAQQLLTLQNQVARLEEENRDFLAALEDAMEQYKLQSDRLREQQEEMVELRLRLELVRPGWGGPRLLNGLPPGSFVPRPHTAPLGGAHAHVLGMVPPACLPGDEVGSEQRGEQVTN
notes: also called GST-tagged Kif7-CC-GFP; not shown: N-terminal GST tag; GFP tag, C-terminal by the name

Kd (GST-Kif7-CC (460-600aa) [8]): 160 nM
B4: Gli2 ZF1-3 (other, human, UniProt P10070 418-530, looked up)
chain: KEDLDRDDCKQEAEVVIYETNCHWEDCTKEYDTQEQLVHHINNEHIHGEKKEFVCRWQACTREQKPFKAQYMLVVHMRRHTGEKPHKCTFEGCSKAYSRLENLKTHLRSHTGE
notes: domain: zinc-fingers 1-3
